Experimental data: paper PMC11066007, “CORVET-specific subunit levels determine the balance between HOPS/CORVET endosomal tethering complexes” (Scientific Reports, 2024)

T1: VPS41-FLAG (human, UniProt P49754 1-854)
T1 construct: VPS41, human, HOPS-specific subunit; DNA region encoding the full-length protein fused with a FLAG tag; The label puts FLAG after the name, but the methods say N-terminal tags were used for VPS41 and VPS39; also called HOPS-specific VPS41; source: HEK293, stably transfected (pCMV3), in lysate; not shown: FLAG, N-terminal, kept
T1 sequence (looked up): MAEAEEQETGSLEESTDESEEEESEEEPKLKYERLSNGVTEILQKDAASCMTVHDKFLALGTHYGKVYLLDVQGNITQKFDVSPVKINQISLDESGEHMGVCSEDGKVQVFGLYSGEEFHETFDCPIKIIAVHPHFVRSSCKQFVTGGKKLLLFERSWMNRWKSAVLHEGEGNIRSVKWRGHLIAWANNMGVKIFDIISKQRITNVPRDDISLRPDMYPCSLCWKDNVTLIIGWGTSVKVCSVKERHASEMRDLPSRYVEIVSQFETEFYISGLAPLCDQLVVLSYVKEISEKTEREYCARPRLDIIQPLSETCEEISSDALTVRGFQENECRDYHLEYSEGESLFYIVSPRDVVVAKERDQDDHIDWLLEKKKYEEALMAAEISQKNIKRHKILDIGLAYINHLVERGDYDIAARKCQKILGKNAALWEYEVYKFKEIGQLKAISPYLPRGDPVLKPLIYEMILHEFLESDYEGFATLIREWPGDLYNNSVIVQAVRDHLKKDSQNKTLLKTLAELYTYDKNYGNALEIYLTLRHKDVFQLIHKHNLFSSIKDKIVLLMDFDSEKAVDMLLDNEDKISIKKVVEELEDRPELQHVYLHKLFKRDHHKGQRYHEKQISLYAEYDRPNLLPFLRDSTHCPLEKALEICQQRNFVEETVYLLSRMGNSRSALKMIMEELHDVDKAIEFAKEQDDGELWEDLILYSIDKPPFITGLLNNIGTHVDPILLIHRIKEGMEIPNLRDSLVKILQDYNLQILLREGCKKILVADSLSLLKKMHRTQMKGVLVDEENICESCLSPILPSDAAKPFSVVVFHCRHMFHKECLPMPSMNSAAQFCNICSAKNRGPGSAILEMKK

T2: VPS39-FLAG (human, UniProt Q96JC1 1-886)
T2 construct: VPS39, human, HOPS-specific subunit; DNA region encoding the full-length protein fused with a FLAG tag; also called HOPS-specific VPS39; not shown: FLAG, N-terminal, kept
T2 sequence (looked up): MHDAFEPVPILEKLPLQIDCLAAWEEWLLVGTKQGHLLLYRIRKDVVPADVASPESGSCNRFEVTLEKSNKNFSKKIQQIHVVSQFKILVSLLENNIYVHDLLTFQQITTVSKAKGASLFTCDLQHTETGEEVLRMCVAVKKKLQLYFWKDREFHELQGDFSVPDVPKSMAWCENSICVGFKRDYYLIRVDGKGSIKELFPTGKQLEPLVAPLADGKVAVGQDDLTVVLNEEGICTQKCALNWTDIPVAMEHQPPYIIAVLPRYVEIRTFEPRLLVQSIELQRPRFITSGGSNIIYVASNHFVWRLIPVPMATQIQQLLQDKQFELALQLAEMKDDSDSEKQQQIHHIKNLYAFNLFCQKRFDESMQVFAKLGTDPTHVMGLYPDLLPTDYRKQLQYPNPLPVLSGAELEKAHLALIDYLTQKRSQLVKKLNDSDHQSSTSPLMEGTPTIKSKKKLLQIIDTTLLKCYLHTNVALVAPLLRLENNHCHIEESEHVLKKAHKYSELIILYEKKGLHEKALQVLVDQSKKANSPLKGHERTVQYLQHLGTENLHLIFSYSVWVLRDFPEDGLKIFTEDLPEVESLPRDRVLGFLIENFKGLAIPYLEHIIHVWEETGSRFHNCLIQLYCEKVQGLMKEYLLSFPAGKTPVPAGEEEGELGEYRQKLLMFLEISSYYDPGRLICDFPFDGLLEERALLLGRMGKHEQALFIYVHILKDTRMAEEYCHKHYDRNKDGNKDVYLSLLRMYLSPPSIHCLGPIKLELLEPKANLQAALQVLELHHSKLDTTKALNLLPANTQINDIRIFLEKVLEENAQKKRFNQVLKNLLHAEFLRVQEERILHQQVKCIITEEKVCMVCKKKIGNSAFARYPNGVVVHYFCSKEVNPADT


What was measured:
VPS41-FLAG = biological target: T1, VPS41-FLAG; assay: co-IP; anti-FLAG beads on total lysates of HEK293 cells stably transfected with a FLAG-tagged specific subunit, with or without transient overexpression of the counterpart subunit (control: pCMV); endogenous VPS11 and VPS18 detected by western blot, densitometry with ImageJ; lysis buffer 50 mM TRIS-HCl pH 7.5, 150 mM NaCl, 1% Triton X-100, 5 mM EDTA; 1.5 h at 4 °C; conditions: partners not purified
VPS39-FLAG = biological target: T2, VPS39-FLAG; assay: as above; conditions: partners not purified

Binder | relative amount bound with VPS8 overexpressed (control cells HEK + pCMV as reference) (VPS41-FLAG) | relative amount bound with Tgfbrap1-HA overexpressed (control cells HEK + pCMV as reference) (VPS39-FLAG)
VPS11 (natural protein, human (endogenous in HEK293), UniProt Q9H270 1-941, looked up, VPS11, shared class C core subunit of HOPS and CORVET, detected by anti-VPS11 western blot in anti-FLAG precipitates; also called core subunit VPS11; source: endogenous, HEK293 lysate) MAAYLQWRRFVFFDKELVKEPLSNDGAAPGATPASGSAASKFLCLPPGITVCDSGRGSLVFGDMEGQIWFLPRSLQLTGFQAYKLRVTHLYQLKQHNILASVGEDEEGINPLVKIWNLEKRDGGNPLCTRIFPAIPGTEPTVVSCLTVHENLNFMAIGFTDGSVTLNKGDITRDRHSKTQILHKGNYPVTGLAFRQAGKTTHLFVVTTENVQSYIVSGKDYPRVELDTHGCGLRCSALSDPSQDLQFIVAGDECVYLYQPDERGPCFAFEGHKLIAHWFRGYLIIVSRDRKVSPKSEFTSRDSQSSDKQILNIYDLCNKFIAYSTVFEDVVDVLAEWGSLYVLTRDGRVHALQEKDTQTKLEMLFKKNLFEMAINLAKSQHLDSDGLAQIFMQYGDHLYSKGNHDGAVQQYIRTIGKLEPSYVIRKFLDAQRIHNLTAYLQTLHRQSLANADHTTLLLNCYTKLKDSSKLEEFIKKKSESEVHFDVETAIKVLRQAGYYSHALYLAENHAHHEWYLKIQLEDIKNYQEALRYIGKLPFEQAESNMKRYGKILMHHIPEQTTQLLKGLCTDYRPSLEGRSDREAPGCRANSEEFIPIFANNPRELKAFLEHMSEVQPDSPQGIYDTLLELRLQNWAHEKDPQVKEKLHAEAISLLKSGRFCDVFDKALVLCQMHDFQDGVLYLYEQGKLFQQIMHYHMQHEQYRQVISVCERHGEQDPSLWEQALSYFARKEEDCKEYVAAVLKHIENKNLMPPLLVVQTLAHNSTATLSVIRDYLVQKLQKQSQQIAQDELRVRRYREETTRIRQEIQELKASPKIFQKTKCSICNSALELPSVHFLCGHSFHQHCFESYSESDADCPTCLPENRKVMDMIRAQEQKRDLHDQFQHQLKCSNDSFSVIADYFGRGVFNKLTLLTDPPTARLTSSLEAGLQRDLLMHSRRGT | 0.31 relative to control cells | 0.66 relative to control cells
VPS18 (natural protein, human (endogenous in HEK293), UniProt Q9P253 1-973, looked up, VPS18, shared class C core subunit of HOPS and CORVET, detected by anti-VPS18 western blot in anti-FLAG precipitates; also called core subunit VPS18; source: endogenous, HEK293 lysate) MASILDEYENSLSRSAVLQPGCPSVGIPHSGYVNAQLEKEVPIFTKQRIDFTPSERITSLVVSSNQLCMSLGKDTLLRIDLGKANEPNHVELGRKDDAKVHKMFLDHTGSHLLIALSSTEVLYVNRNGQKVRPLARWKGQLVESVGWNKALGTESSTGPILVGTAQGHIFEAELSASEGGLFGPAPDLYFRPLYVLNEEGGPAPVCSLEAERGPDGRSFVIATTRQRLFQFIGRAAEGAEAQGFSGLFAAYTDHPPPFREFPSNLGYSELAFYTPKLRSAPRAFAWMMGDGVLYGALDCGRPDSLLSEERVWEYPEGVGPGASPPLAIVLTQFHFLLLLADRVEAVCTLTGQVVLRDHFLEKFGPLKHMVKDSSTGQLWAYTERAVFRYHVQREARDVWRTYLDMNRFDLAKEYCRERPDCLDTVLAREADFCFRQRRYLESARCYALTQSYFEEIALKFLEARQEEALAEFLQRKLASLKPAERTQATLLTTWLTELYLSRLGALQGDPEALTLYRETKECFRTFLSSPRHKEWLFASRASIHELLASHGDTEHMVYFAVIMQDYERVVAYHCQHEAYEEALAVLARHRDPQLFYKFSPILIRHIPRQLVDAWIEMGSRLDARQLIPALVNYSQGGEVQQVSQAIRYMEFCVNVLGETEQAIHNYLLSLYARGRPDSLLAYLEQAGASPHRVHYDLKYALRLCAEHGHHRACVHVYKVLELYEEAVDLALQVDVDLAKQCADLPEEDEELRKKLWLKIARHVVQEEEDVQTAMACLASCPLLKIEDVLPFFPDFVTIDHFKEAICSSLKAYNHHIQELQREMEEATASAQRIRRDLQELRGRYGTVEPQDKCATCDFPLLNRPFYLFLCGHMFHADCLLQAVRPGLPAYKQARLEELQRKLGAAPPPAKGSARAKEAEGGAATAGPSREQLKADLDELVAAECVYCGELMIRSIDRPFIDPQRYEEEQLSWL | 0.69 relative to control cells | 0.63 relative to control cells
